The values that follow come from publication PMC8808070 (The Journal of Biological Chemistry, 2021).

The target in data set [1] is T1, YjgCD (ForCE1) (Bacillus subtilis, UniProt O34720).
T1 construct: gene forC; full-length YjgC with N-terminal 6His tag and TEV site, copurified with untagged YjgD; homologous expression in B. subtilis 168; heterodimer 132 kDa; YjgC ~110 kDa, YjgD 21 kDa
T1 sequence (O34720 1-985): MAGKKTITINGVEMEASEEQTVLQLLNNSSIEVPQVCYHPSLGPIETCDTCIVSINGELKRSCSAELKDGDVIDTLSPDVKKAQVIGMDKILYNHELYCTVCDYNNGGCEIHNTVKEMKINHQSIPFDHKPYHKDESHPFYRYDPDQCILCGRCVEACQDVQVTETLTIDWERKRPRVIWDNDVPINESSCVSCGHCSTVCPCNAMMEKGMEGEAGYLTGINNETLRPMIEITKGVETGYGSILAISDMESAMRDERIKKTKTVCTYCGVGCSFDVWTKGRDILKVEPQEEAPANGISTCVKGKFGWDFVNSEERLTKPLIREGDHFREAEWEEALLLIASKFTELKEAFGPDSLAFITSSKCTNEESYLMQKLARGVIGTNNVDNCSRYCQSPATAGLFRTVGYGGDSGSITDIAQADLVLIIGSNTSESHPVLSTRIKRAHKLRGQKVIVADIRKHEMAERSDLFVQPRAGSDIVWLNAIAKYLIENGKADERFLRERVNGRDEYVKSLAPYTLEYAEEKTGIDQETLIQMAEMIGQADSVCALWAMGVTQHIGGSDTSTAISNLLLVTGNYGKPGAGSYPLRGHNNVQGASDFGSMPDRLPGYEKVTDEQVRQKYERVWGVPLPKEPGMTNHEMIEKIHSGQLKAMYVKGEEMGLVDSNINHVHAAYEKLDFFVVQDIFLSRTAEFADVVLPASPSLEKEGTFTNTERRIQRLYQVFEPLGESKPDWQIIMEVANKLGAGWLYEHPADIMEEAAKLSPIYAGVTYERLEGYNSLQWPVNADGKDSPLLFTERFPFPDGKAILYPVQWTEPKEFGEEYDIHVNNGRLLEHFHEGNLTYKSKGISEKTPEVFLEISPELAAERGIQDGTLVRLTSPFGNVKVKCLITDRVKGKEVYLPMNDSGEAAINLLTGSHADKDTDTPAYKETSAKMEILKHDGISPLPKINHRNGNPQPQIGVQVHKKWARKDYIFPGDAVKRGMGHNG
T1 sequence (O34681 1-186 partner): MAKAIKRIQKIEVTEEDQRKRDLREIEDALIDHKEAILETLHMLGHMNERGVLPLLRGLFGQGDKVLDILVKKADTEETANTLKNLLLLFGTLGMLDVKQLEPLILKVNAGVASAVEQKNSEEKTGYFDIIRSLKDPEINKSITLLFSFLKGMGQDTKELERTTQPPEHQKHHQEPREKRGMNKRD
Put plainly: copurification, HPLC-ECD-MS of lipid extracts. To be noted: copurified without detergent, minor species. The class given is binding.

Data set [2] concerns the target T1, YjgCD (ForCE1). Nature of the data set: copurification, HPLC-ECD-MS of lipid extracts; EPR of bound menasemiquinone radical. The class given is binding. To be noted: copurified without detergent; neutral menasemiquinone form seen by EPR at pH 6.0 and 7.5.
Another data set has as its target T2, YrhED (ForCE2) (Bacillus subtilis, UniProt Q795Y4).
T2 construct: gene fdhE; full-length YrhE with N-terminal 6His tag and TEV site, copurified with untagged YrhD; homologous expression in B. subtilis 168; heterodimer 125 kDa; YrhE ~110 kDa, YrhD 17 kDa
T2 sequence (Q795Y4 1-980): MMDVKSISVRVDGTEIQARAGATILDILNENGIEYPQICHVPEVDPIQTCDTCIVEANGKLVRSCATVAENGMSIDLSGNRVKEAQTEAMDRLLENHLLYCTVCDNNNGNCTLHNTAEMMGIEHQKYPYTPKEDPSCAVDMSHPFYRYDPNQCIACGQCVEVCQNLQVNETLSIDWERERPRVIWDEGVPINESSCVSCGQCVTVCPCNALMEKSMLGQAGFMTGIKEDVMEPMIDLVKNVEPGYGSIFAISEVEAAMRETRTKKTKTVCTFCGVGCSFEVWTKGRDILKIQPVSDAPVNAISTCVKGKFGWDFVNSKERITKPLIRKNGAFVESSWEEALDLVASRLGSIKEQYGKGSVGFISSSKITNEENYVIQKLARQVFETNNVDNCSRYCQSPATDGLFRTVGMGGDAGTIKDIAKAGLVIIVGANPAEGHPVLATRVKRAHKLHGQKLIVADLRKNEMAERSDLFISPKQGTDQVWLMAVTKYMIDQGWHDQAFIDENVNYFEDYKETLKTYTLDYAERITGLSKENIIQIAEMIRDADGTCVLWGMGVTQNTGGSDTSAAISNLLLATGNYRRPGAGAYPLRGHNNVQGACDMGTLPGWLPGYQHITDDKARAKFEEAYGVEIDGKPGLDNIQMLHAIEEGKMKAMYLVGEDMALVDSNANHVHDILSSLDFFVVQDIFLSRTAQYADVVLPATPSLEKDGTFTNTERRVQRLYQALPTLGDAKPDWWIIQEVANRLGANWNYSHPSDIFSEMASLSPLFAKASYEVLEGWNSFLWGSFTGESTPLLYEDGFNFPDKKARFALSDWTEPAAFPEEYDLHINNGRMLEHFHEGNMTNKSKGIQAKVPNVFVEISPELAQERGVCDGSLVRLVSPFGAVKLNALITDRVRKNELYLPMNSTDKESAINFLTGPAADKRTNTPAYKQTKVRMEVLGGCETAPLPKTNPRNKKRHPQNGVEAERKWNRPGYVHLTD
T2 sequence (O05396 1-160 partner): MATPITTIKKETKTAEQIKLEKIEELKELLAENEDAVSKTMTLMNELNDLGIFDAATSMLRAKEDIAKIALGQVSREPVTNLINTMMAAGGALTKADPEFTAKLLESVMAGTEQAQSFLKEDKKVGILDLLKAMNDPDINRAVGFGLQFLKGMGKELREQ
The data set is described as above. The data set is classed as binding. The conditions noted are these: copurified without detergent; menasemiquinone radical seen by EPR.

Substrate in data set [3]: CC1=CC(=O)c2ccccc2C1=O
Nature of the data set: purified protein. The data set is classed as biochemical, Bacillus subtilis. To be noted: 50 mM sodium formate as electron donor, 25 mM CHES pH 9, room temperature, anaerobic.

Substrate in data set [4]: O=CO
Nature of the data set: purified protein. To be noted: anaerobic.

[5] abbreviates: benzyl viologen as electron acceptor (17.5 mM), 25 mM CHES pH 10, room temperature, pH 10.0.
Where [6] appears, read: benzyl viologen as electron acceptor (1.75 mM), 25 mM CHES pH 8.6, room temperature, pH 8.6.

For `CC(C)=CCC/C(C)=C/CC/C(C)=C/CC/C(C)=C/CC/C(C)=C/CC/C(C)=C/CC/C(C)=C/CC/C(C)=C/CC1=C(C)C(=O)c2ccccc2C1=O` [MK-8], the “copurification, HPLC-ECD-MS of lipid extracts” value at YjgCD (ForCE1) [1] is “ForCE1 is also able to bind MK-8 at a low but significant ratio”.

For the molecule `CC(C)=CCC/C(C)=C/CC/C(C)=C/CC/C(C)=C/CC/C(C)=C/CC/C(C)=C/CC/C(C)=C/CC1=C(C)C(=O)c2ccccc2C1=O` [MK-7], the ForCE1-MK-7 ratio at YjgCD (ForCE1) [2] is on record as 1:0.87. Moreover, the ForCE2-MK-7 ratio on YrhED (ForCE2) is 1:1.63.

B1: YjgCD (ForCE1) (Bacillus subtilis subsp. subtilis str. 168) (protein)
chain: T1 sequence (O34720 1-985)
notes: full-length YjgC with N-terminal 6His tag and TEV site, copurified with untagged YjgD; homologous expression in B. subtilis 168; heterodimer 132 kDa; YjgC ~110 kDa, YjgD 21 kDa
For the molecule B1, in “purified protein [3]”, the Km – broadly, the concentration of substrate that gives half-maximal velocity – stood at 25 ± 3 µM; the Vmax (in general, the rate approached at saturating substrate) came to 7.5 µmol/min; the kcat (usually the number of substrate molecules converted per active site and unit of time at saturation) is 16.5 ± 0.6 s⁻¹. For the same molecule, in “purified protein [4]” (setting [5]), the Km worked out at 5100 ± 900 µM, the Vmax amounted to 43.7 µmol/min and the kcat came to 96.1 s⁻¹.

B2: YrhED (ForCE2) (Bacillus subtilis subsp. subtilis str. 168) (protein)
chain: T2 sequence (Q795Y4 1-980)
notes: full-length YrhE with N-terminal 6His tag and TEV site, copurified with untagged YrhD; homologous expression in B. subtilis 168; heterodimer 125 kDa; YrhE ~110 kDa, YrhD 17 kDa
For B2, in “purified protein [3]”, the Michaelis-Menten constant (Km) stood at 23 ± 5 µM, the Vmax is 12.6 µmol/min and the kcat was determined as 26.4 ± 1.8 s⁻¹. Besides, in “purified protein [4]” (setting [6]), the Km stood at 1100 ± 100 µM, the Vmax is 26.6 µmol/min and the kcat amounted to 55.8 s⁻¹.
